From patent US20220363778A1 (RESEARCH FOUNDATION FOR THE STATE UNIVERSITY OF NEW YORK, published 2022)

What was measured:
[1] = molecular target: T1, mouse serum albumin (MSA) (MyBioSource, MBS135633) (mouse, UniProt P07724 25-608, limits assumed); assay: SPR, mouse serum albumin injected at about 400 s over 2Rs15d-ColH held on a HER2-Fc chip
T1 construct: Immobilised on the SPR chip for kinetics
From the text: Surface plasmon resonance was used to assess HER2 and MSA binding.

[2] = molecular target: T2, HER2-Fc (Sino Biological, 10004-H02H) (UniProt P04626 23-652); assay: SPR, HER2-Fc immobilised, 1:1 Langmuir fit
T2 construct: Bought reagent, immobilised on a carboxymethyl dextran SPR chip by EDC/NHS; not shown: Fc portion of the bought reagent

[3] = molecular target: T1, mouse serum albumin (MSA) (MyBioSource, …); assay: SPR, mouse serum albumin immobilised on the chip, 2Rb17c-ColH-ABD injected at 7.5-75 nM, 10 min dissociation, 1:1 Langmuir fit in Scrubber
Experimental: (§1) Surface plasmon resonance (SPR) was performed using a Reichert SR7500DC SPR and SR8100 autosampler (Reichert, Depew, N.Y.). HER2-Fc (Sino Biological, Beijing, China, 10004-H02H) or mouse serum albumin (MSA) (MyBioSource, San Diego, Calif., MBS135633) was immobilized onto a carboxymethyl dextran SPR chip (Reichert, Depew, N.Y., 13206066) using 1-Ethyl-3-(3-dimethylaminopropyl)carbodiimide/N-hydroxysuccinimide linker chemistry. A mobile phase of PBS 0.05% Tween-20 at a flow rate of 25 μL/min was used for all binding evaluations. Fusion protein dilutions were injected for 90 seconds, and the chip regenerated following dissociation with a 2-minute injection of a 10 millimolar (mM) glycine buffer pH 1.5. […] The observed sensor-grams were fit to a 1:1 Langmuir binding model in the Scrubber analysis software to obtain the association rate constant (kon), dissociation rate constant (koff), and the equilibrium dissociation constant (KD).

[4] = molecular target: T1, mouse serum albumin (MSA) (MyBioSource, …); assay: SPR, mouse serum albumin immobilised on the chip, 2Rs15d-ColH-ABD injected at 7.5-60 nM, 10 min dissociation, 1:1 Langmuir fit in Scrubber
Experimental: as §1

B1: 2Rs15d-ColH fusion protein (2Rs15d-Clostridial Collagenase H fusion protein) (other)
chain: QVQLQESGGGSVQAGGSLKLTCAASGYIFNSCGMGWYRQSPGRERELVSRISGDGDTWHKESVKGRFTISQDNVKKTLYLQMNSLKPEDTAVYFCAVCYNLETYWGQGTQVTVSSGGGGSGGGGSGGGGSVQNESKRYTVSYLKTLNYYDLVDLLVKTEIENLPDLFQYSSDAKEFYGNKTRMSFIMDEIGRRAPQYTEIDHKGIPTLVEVVRAGFYLGFHNKELNEINKRSFKERVIPSILAIQKNPNFKLGTEVQDKIVSATGLLAGNETAPPEVVNNFTPILQDCIKNIDRYALDDLKSKALFNVLAAPTYDITEYLRATKEKPENTPWYGKIDGFINELKKLALYGKINDNNSWIIDNGIYHIAPLGKLHSNNKIGIETLTEVMKVYPYLSMQHLQSADQIKRHYDSKDAEGNKIPLDKFKKEGKEKYCPKTYTFDDGKVIIKAGARVEEEKVKRLYWASKEVNSQFFRVYGIDKPLEEGNPDDILTMVIYNSPEEYKLNSVLYGYDTNNGGMYIEPEGTFFTYEREAQESTYTLEELFRHEYTHYLQGRYAVPGQWGRTKLYDNDRLTWYEEGGAELFAGSTRTSGILPRKSIVSNIHNTTRNNRYKLSDTVHSKYGASFEFYNYACMFMDYMYNKDMGILNKLNDLAKNNDVDGYDNYIRDLSSNYALNDKYQDHMQERIDNYENLTVPFVADDYLVRHAYKNPNEIYSEISEVAKLKDAKSEVKKSQYFSTFTLRGSYTGGASKGKLEDQKAMNKFIDDSLKKLDTYSWSGYKTLTAYFTNYKVDSSNRVTYDVVFHGYLPNEGDSKNSLPYGKINGTYKGTEKEKIKFSSEGSFDPDGKIVSYEWDFGDGNKSNEENPEHSYDKVGTYTVKLKVTDDKGESSVSTTTAEIKDLSENKLPVIYMHVPKSGALNQKVVFYGKGTYDPDGSIAGYQWDFGDGSDFSSEQNPSHVYTKKGEYTVTLRVMDSSGQMSEKTMKIKITDPVYPIGTEKEPNNSKETASGPIVPGIPVSGTIENTSDQDYFYFDVITPGEVKIDINKLGYGGATWVVYDENNNAVSYATDDGQNLSGKFKADKPGRYYIHLYMFNGSYMPYRINIELEHHHHHH
notes: Fusion of a VHH (sdAb), a linker, Clostridium collagenase H and a His6 tag, expressed in E. coli SHuffle; also called targeted collagenase; anti-HER2-collagenase fusion protein
binding result [1]: no binding

B2: 2Rb17c-ColH-ABD fusion protein (other)
chain: QVQLQESGGGLVQPGGSLRLSCAASGFIFSNDAMTWVRQAPGKGLEWVSSINWSGTHTNYADSVKGRFTISRDNAKRTLYLQMNSLKDEDTALYYCVTGYGVTKTPTGQGTQVTVSSGGGSGGGSGGGSVQNESKRYTVSYLKTLNYYDLVDLLVKTEIENLPDLFQYSSDAKEFYGNKTRMSFIMDEIGRRAPQYTEIDHKGIPTLVEVVRAGFYLGFHNKELNEINKRSFKERVIPSILAIQKNPNFKLGTEVQDKIVSATGLLAGNETAPPEVVNNFTPILQDCIKNIDRYALDDLKSKALFNVLAAPTYDITEYLRATKEKPENTPWYGKIDGFINELKKLALYGKINDNNSWIIDNGIYHIAPLGKLHSNNKIGIETLTEVMKVYPYLSMQHLQSADQIKRHYDSKDAEGNKIPLDKFKKEGKEKYCPKTYTFDDGKVIIKAGARVEEEKVKRLYWASKEVNSQFFRVYGIDKPLEEGNPDDILTMVIYNSPEEYKLNSVLYGYDTNNGGMYIEPEGTFFTYEREAQESTYTLEELFRHEYTHYLQGRYAVPGQWGRTKLYDNDRLTWYEEGGAELFAGSTRTSGILPRKSIVSNIHNTTRNNRYKLSDTVHSKYGASFEFYNYACMFMDYMYNKDMGILNKLNDLAKNNDVDGYDNYIRDLSSNYALNDKYQDHMQERIDNYENLTVPFVADDYLVRHAYKNPNEIYSEISEVAKLKDAKSEVKKSQYFSTFTLRGSYTGGASKGKLEDQKAMNKFIDDSLKKLDTYSWSGYKTLTAYFTNYKVDSSNRVTYDVVFHGYLPNEGDSKNSLPYGKINGTYKGTEKEKIKFSSEGSFDPDGKIVSYEWDFGDGNKSNEENPEHSYDKVGTYTVKLKVTDDKGESSVSTTTAEIKDLSENKLPVIYMHVPKSGALNQKVVFYGKGTYDPDGSIAGYQWDFGDGSDFSSEQNPSHVYTKKGEYTVTLRVMDSSGQMSEKTMKIKITDPVYPIGTEKEPNNSKETASGPIVPGIPVSGTIENTSDQDYFYFDVITPGEVKIDINKLGYGGATWVVYDENNNAVSYATDDGQNLSGKFKADKPGRYYIHLYMFNGSYMPYRINIEGGGSGGGSLEVLFQGPGGGSLAEAKVLANRELDKYGVSDFYKRLINKAKTVEGVEALKLHILAALPHHHHHH
Kd [2]: 17.1 nM | Kd [3]: 1.6 nM

B3: 2Rs15d-ColH-ABD fusion protein (other)
chain: QVQLQESGGGSVQAGGSLKLTCAASGYIFNSCGMGWYRQSPGRERELVSRISGDGDTWHKESVKGRFTISQDNVKKTLYLQMNSLKPEDTAVYFCAVCYNLETYWGQGTQVTVSSGGGSGGGSGGGSVQNESKRYTVSYLKTLNYYDLVDLLVKTEIENLPDLFQYSSDAKEFYGNKTRMSFIMDEIGRRAPQYTEIDHKGIPTLVEVVRAGFYLGFHNKELNEINKRSFKERVIPSILAIQKNPNFKLGTEVQDKIVSATGLLAGNETAPPEVVNNFTPILQDCIKNIDRYALDDLKSKALFNVLAAPTYDITEYLRATKEKPENTPWYGKIDGFINELKKLALYGKINDNNSWIIDNGIYHIAPLGKLHSNNKIGIETLTEVMKVYPYLSMQHLQSADQIKRHYDSKDAEGNKIPLDKFKKEGKEKYCPKTYTFDDGKVIIKAGARVEEEKVKRLYWASKEVNSQFFRVYGIDKPLEEGNPDDILTMVIYNSPEEYKLNSVLYGYDTNNGGMYIEPEGTFFTYEREAQESTYTLEELFRHEYTHYLQGRYAVPGQWGRTKLYDNDRLTWYEEGGAELFAGSTRTSGILPRKSIVSNIHNTTRNNRYKLSDTVHSKYGASFEFYNYACMFMDYMYNKDMGILNKLNDLAKNNDVDGYDNYIRDLSSNYALNDKYQDHMQERIDNYENLTVPFVADDYLVRHAYKNPNEIYSEISEVAKLKDAKSEVKKSQYFSTFTLRGSYTGGASKGKLEDQKAMNKFIDDSLKKLDTYSWSGYKTLTAYFTNYKVDSSNRVTYDVVFHGYLPNEGDSKNSLPYGKINGTYKGTEKEKIKFSSEGSFDPDGKIVSYEWDFGDGNKSNEENPEHSYDKVGTYTVKLKVTDDKGESSVSTTTAEIKDLSENKLPVIYMHVPKSGALNQKVVFYGKGTYDPDGSIAGYQWDFGDGSDFSSEQNPSHVYTKKGEYTVTLRVMDSSGQMSEKTMKIKITDPVYPIGTEKEPNNSKETASGPIVPGIPVSGTIENTSDQDYFYFDVITPGEVKIDINKLGYGGATWVVYDENNNAVSYATDDGQNLSGKFKADKPGRYYIHLYMFNGSYMPYRINIEGGGSGGGSLEVLFQGPGGGSLAEAKVLANRELDKYGVSDFYKRLINKAKTVEGVEALKLHILAALPHHHHHH
notes: The text says (G4S)3 linkers and a TEV site; also called 2Rs15d-ColH-ABD035
Kd [4]: 1.5 nM
